Measured values published in US6969760B2, “Jak kinases and regulation of cytokine signal transduction” (St. Jude Children's Research Hospital, priority 1993, dated 2005).

Key:
[1] = system: wild-type 2C4 and γ-1/Jak2 transfectants; assay: IFN-γ response (cell surface markers, IFN-inducible mRNAs) of wild-type 2C4 and γ-1/Jak2 transfectants; format: cell-based, human
Method: Cell surface expression of transfected CD2 and endogenous Class I and II HLAs in response to IFNs-α or -γ on wild-type 2C4, mutant γ-1 cells and mutant γ-1 cells stably transfected with a murine Jak2 cDNA expression construct. Data was generated for an enriched population and a clone of γ-1/Jak2 transfectants using FACSCAN (BECTON DICKINSON) analyses (3000 data points, Consort 30). Cells were plated at 5×10^5/10 cm dish and treated the following day with 10^3 IU/ml of a highly purified mixture of α-IFNs (WELLFERON 1.5×10^8 IU/mg protein, kindly supplied by WELLCOME […]. LABORATORIES, Beckenham, UK) or recombinant human IFN-γ (4×10^7 IU/mg protein, obtained from Dr. Gunter Adolf, Ernst Boehringer Institut fur Arzneimittelforschung, Vienna, Austria, and commercially or readily available). […]
IFN-inducible gene expression in wild type 2C4, mutant γ-1 and mutant γ-1/Jak2 transfected cells: mRNA expression in response to IFNs-α or -γ was monitored by RNase protection using probes to detect the IFN-inducible mRNAs of: the 9-27, 6-16, 2-5A synthetase and ISGF3γ genes and the p91 and p84 alternatively spliced products of the p91/84 ISGF3α gene and the IRF1 and GBP genes. […]

EMC virus = assay: Antiviral assay versus EMC virus; format: cell-based; conditions: per 1 fmole of 125I-IFN-γ
Method: Binding of ^125I-labeled IFN-γ to 2C4 and mutant γ-1 cells: ^125I-IFN-γ (667 Ci/mMole, Amersham International, UK) treatment was of triplicate samples of 10^6 cells for 90 min at 0° C. Non-specific binding was subtracted. It was determined in parallel in the presence of a 200 fold excess of unlabeled IFN-γ and represented approximately 40% of the total radioactivity bound. In a parallel antiviral assay versus EMC virus 1 fmole of ^125I-IFN-γ was equivalent to 0.15 IU. Specific binding at the highest IFN-γ concentration here corresponded to about 6000 receptors per cell.

Jak3 and Jak1 = assay: IL-2/IL-4-induced tyrosine phosphorylation of Jaks in CTLL cells; format: cell-based, murine
Method: IL-2 and IL-4 stimulation of Jak1 and Jak3 tyrosine phosphorylation and activation of Jak3 in vitro kinase activity. FIG. 9A: CTLL cells were deprived of growth factors for 14 hr and were either left unstimulated (lanes 1, 4, 7 and 10), were stimulated with 100 U/ml with IL-2 (Cetus) for 10 min (lanes 2,5,8 and 11) or were stimulated with 100 ng/ml of IL-4 (R&D) for 10 min (lanes 3, 6, 9 and 12). Extracts were prepared as previously described (Witthuhn et al., Cell: 227-236 (1993)) and used for immunoprecipitation with the indicated antisera. The immunoprecipitates were resolved by SDS-PAGE, electrophoretically transferred to nitrocellulose and the membranes were probed with the 4G10 monoclonal antibody (UBI) against phosphotyrosine. FIG. 9B: CTLL cells were deprived of growth factors for 14 hr and were either unstimulated (lane 1), stimulated with IL-2 (lane 2) or stimulated with IL-4 (lane 3) as above. Extracts were prepared and used for immunoprecipitation with the Jak3/Jak1 cross-reactive antipeptide antiserum against Tyk2. The immunoprecipitates were used in in vitro kinase assays as previously described (Witthuhn et al., Cell: 227-236 (1993)) and the products resolved by SDS-PAGE and visualized by autoradiography. […]

B1: IFN-γ: recombinant human IFN-γ (4×10^7 IU/mg protein) (protein)
chain: QDPYVKEAENLKKYFNAGHSDVADNGTLFLGILKNWKEESDRKIMQSQIVSFYFKLFKNFKDDQSIQKSVETIKEDMNVKFFNSNKKKRDDFEKLTNYSVTDLNVQRKAIHELIQVMAELSPAAKTGKRKRSQMLFRGRRASQ
IFN-γ concentration giving an approaching maximal response [1]: 100 IU/ml | IFN-γ concentration giving a clear response ([1]; dose response curves essentially identical): 10 IU/ml

B2: ^125I-IFN-γ: 125I-labeled IFN-γ (667 Ci/mMole, Amersham) (protein)
chain: B1 chain
antiviral activity equivalent of 1 fmole (EMC virus): 0.15 IU

B3: IL-4: IL-4 (R&D), cytokine (protein, UniProt P05112 25-153, looked up)
Interleukin-4: HKCDITLQEIIKTLNSLTEQKTLCTELTVTDIFAASKNTTEKETFCRAATVLRQFYSHHEKDTRCLGATAQQFHRHKQLIRFLKRLDRNLWGLAGLNSCPVKEANQSTLENFLERLKTIMREKYSKCSS
onset of phosphorylation of the Jaks following stimulation (Jak3 and Jak1): detectable within one minute
